According to paper PMC8052441, “Structural insight into the molecular mechanism of p53-mediated mitochondrial apoptosis” (Nature Communications, 2021):

Columns and labels:
[1] = target: T1, p53-DBD (human p53 DNA-binding domain, amino acids 92-292) (human, UniProt P04637 92-292); experiment: ITC; p53 protein (100 µM) titrated into 10–30 µM BCL-xL or BCL-2; 25 °C; 50 mM Tris pH 7.0, 40 mM NaCl, 1 mM TCEP; conditions: both partners purified
T1 construct: Cloned into pMAL-c5x; In the crystal (PDB 6LHD) this stretch stood fused to BCL-xL; the rows of the structure use m1 and m3 for the two halves; also called p53-A; p53-B; source: E. coli BL21 (DE3), purified (amylose, PreScission, Mono S)

[2] = target: T2, p53-DT (human p53 DBD and tetramerization domain, amino acids 92-360) (human, UniProt P04637 92-360); experiment: as above; conditions: both partners purified
T2 construct: human p53, DBD and tetramerization domain, amino acids 92-360; Tetramer in solution by gel filtration and cross-linking; also called wild-type p53-DT; not shown: His6, N-terminal, cleaved
T2 sequence (P04637 92-360): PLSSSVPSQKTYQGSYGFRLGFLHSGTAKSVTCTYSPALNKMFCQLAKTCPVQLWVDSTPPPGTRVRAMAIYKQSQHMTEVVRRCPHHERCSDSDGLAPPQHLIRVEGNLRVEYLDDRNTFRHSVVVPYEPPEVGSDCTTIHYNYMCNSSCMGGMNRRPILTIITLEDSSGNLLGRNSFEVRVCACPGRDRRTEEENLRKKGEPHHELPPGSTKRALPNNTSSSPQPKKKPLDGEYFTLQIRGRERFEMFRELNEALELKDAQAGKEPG

T1 sequence (P04637 92-292): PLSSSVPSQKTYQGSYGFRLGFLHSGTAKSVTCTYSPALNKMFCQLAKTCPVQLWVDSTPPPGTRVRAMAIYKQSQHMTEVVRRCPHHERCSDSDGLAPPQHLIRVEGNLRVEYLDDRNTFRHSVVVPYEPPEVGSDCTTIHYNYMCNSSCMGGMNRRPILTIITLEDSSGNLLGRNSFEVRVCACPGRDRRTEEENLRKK

Kd [1]: 37.4 µM | Kd [2]: 4.1 µM
B1: BCL-xL (human, lacking the α1-α2 loop 45-84 and the 22 C-terminal residues), His-tagged (domain or fragment, UniProt Q07817-1 1-211, looked up)
chain: MSQSNRELVVDFLSYKLSQKGYSWSQFSDVEENRTEAPEGTESEAVKQALREAGDEFELRYRRAFSDLTSQLHITPGTAYQSFEQVVNELFRDGVNWGRIVAFFSFGGALCVESVDKEMQVLVSRIAAWMATYLNDHLEPWIQENGGWDTFVELYGNNAAAESRKGQERFN
notes: human BCL-xL lacking the disordered α1-α2 loop (amino acids 45-84) and the 22 C-terminal residues (transmembrane region); Cloned into pET-28a; also called BCL-xL-C; BCL-xL-D
